Laboratory results from patent US20010034432A1.

What was measured:
[1] = molecular target: human CCR5 with a C-terminal glycine residue followed by the C9 nonapeptide tag (expressed from the (human; bovine) (UniProt P51681); assay: immunoprecipitation from 35S-labeled Cf2Th/PACH/synCCR5 lysate in 1% Fos-Choline-14, SDS-PAGE
[2] = molecular target: human CCR5 with a C-terminal glycine residue followed by the C9 nonapeptide tag (expressed from the (human; bovine) (UniProt P51681); assay: immunoprecipitation from 35S-labeled Cf2Th/PACH/synCCR5 lysate in 1% Cymal-5, SDS-PAGE
[3] = molecular target: human CCR5 with a C-terminal glycine residue followed by the C9 nonapeptide tag (expressed from the (human; bovine) (UniProt P51681); assay: immunoprecipitation from 35S-labeled Cf2Th/PACH/synCCR5 lysate in 1% DHPC, SDS-PAGE
[4] = molecular target: cleavage-defective, cytoplasmic tail-truncated gp160 envelope glycoprotein of the YU2 HIV-1 primary (HIV-1 YU2 primary isolate; bovine) (UniProt P35961); assay: FACS binding curves on gp160-expressing 293T cells and gp160-proteoliposomes
UniProt P35961, sequence (P35961 whole entry, the tested form may be a part): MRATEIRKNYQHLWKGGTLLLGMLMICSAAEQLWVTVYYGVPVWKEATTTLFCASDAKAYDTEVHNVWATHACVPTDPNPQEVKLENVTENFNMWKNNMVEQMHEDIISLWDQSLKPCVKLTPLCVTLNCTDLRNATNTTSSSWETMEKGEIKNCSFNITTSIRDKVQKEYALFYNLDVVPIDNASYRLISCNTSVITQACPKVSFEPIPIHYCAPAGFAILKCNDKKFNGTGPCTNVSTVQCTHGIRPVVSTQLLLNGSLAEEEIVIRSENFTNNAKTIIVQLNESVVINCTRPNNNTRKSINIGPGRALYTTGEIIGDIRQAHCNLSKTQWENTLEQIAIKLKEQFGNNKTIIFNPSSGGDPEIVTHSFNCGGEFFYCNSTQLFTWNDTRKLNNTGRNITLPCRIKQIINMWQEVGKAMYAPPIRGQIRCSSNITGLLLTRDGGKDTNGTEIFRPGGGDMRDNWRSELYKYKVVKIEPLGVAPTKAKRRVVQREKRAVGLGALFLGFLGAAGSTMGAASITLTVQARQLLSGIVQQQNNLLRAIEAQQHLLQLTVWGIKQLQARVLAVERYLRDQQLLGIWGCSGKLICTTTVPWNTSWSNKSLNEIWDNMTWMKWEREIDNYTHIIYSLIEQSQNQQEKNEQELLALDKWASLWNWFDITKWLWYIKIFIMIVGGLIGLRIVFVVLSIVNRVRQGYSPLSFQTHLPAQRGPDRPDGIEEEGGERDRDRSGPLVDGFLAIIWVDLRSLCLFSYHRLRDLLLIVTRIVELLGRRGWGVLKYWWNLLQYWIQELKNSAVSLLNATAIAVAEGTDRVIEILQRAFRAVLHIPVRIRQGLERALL

UniProt P51681, sequence (P51681 whole entry, the tested form may be a part): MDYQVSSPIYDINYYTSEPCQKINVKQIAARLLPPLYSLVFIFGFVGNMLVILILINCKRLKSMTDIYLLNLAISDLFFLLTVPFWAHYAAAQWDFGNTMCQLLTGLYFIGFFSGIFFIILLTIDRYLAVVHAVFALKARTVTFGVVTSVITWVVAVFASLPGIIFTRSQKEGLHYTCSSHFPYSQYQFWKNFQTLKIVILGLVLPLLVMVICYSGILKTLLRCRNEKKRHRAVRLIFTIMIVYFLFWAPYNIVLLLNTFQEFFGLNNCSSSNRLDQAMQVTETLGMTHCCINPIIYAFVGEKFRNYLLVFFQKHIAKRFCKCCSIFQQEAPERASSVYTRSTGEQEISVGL

| Substance | percentage of conformationally intact CCR5 (CCR5 precipitated by 2D7 relative to that precipitated by 1D4) [1] [%] | percentage of conformationally intact CCR5 (CCR5 precipitated by 2D7 relative to that precipitated by 1D4) [2] [%] | percentage of conformationally intact CCR5 (CCR5 precipitated by 2D7 relative to that precipitated by 1D4) [3] [%] | EC50 [4] [µg/mL] |
| --- | --- | --- | --- | --- |
| 2D7 anti-CCR5 antibody (conformation-dependent) | 13 | 98 | 10 | – |
| CD4BS antibody IgGb12 | – | – | – | < 1 |
